{"source": "the supplement of paper PMC9732359", "note": "± gives the uncertainty stated by the source."}
{"experiment": "protein stability index of a GFP-peptide fusion (yeast GPS) (PSI 1-4); higher = more stable; sorted into four equal gates, so the index is relative within each strain", "details": "doa10∆", "in_short": "(§1)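 Tiled 17-residue peptides from yeast proteins were fused downstream of GFP on a plasmid that also expresses Cherry, and the pooled library was carried in yeast. Mid-log cultures grown in leucine-free medium were sorted into four equal gates by GFP/Cherry fluorescence ratio. Plasmids from each gate were PCR-amplified and Illumina-sequenced, and reads were assigned to strains by barcodes. Each peptide's protein stability index is the sum, over gates, of the gate's read frequency multiplied by its gate number.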"}
{"sequence": "PRVKGFKMNEIVPLHSP [SEC65]", "protein stability index": "2.89 ± 0.087"}
{"experiment": "protein stability index of a GFP-peptide fusion (yeast GPS) (PSI 1-4); higher = more stable; sorted into four equal gates, so the index is relative within each strain", "details": "pdr5∆", "in_short": "as §1"}
{"sequence": "NSSESDEEESNDEKQKA [RPN13]", "protein stability index": "2.43 ± 0.21"}
{"sequence": "NSTHLLPLQPIEIDYTV [SNF12]", "protein stability index": "2.27 ± 0.044"}
{"sequence": "NSVRNSLLLAHFFSKSC [NUT1]", "protein stability index": "1.28 ± 0.041"}
{"sequence": "NTEEKAELQSNLQVELL [YGL100W/SEH1]", "protein stability index": "3.02 ± 0.087"}
{"sequence": "NTFGSSSLFNNSTNSNT [YJL041W/NSP1]", "protein stability index": "2.44 ± 0.053"}
{"sequence": "NTFNYDVKISNDFFDNG [RPN4]", "protein stability index": "2.3 ± 0.07"}
{"sequence": "NTGDGSISTYKDILNLA [ECM29]", "protein stability index": "2.97 ± 0.11"}
{"sequence": "NTGLLNKANIQALIHGL [RPN11]", "protein stability index": "2.88 ± 0.15"}
{"sequence": "NTHLGARNVQVHQEPYV [RPS0A]", "protein stability index": "2.25 ± 0.053"}
{"sequence": "NTIIRDGSKMLKRADYT [RPN14]", "protein stability index": "2.36 ± 0.093"}
{"sequence": "NTLGKGQNCLDIDGIMD [SNU114]", "protein stability index": "3.15 ± 0.1"}
{"sequence": "NTLRKCYPQFAERDSQG [UBP6]", "protein stability index": "2.65 ± 0.15"}
{"sequence": "NTNLMNGVNVQIDQLNR [GRR1]", "protein stability index": "3.06 ± 0.061"}
{"sequence": "NTPLVGAAFKVISNLVP [YJL039C/NUP192]", "protein stability index": "2.08 ± 0.095"}
{"sequence": "NTSAATVHTATSSSIIL [SSN2]", "protein stability index": "2.761 ± 0.026"}
{"sequence": "NTTDPLGHTKAALGEVA [SIR2]", "protein stability index": "2.69 ± 0.078"}
{"sequence": "NTTKPAFGGLNFGGGNN [YJL041W/NSP1]", "protein stability index": "3.2 ± 0.061"}
{"sequence": "NTVVGISGDISDMQHIE [PRE4]", "protein stability index": "3.29 ± 0.12"}
{"sequence": "NVDQTKTQCPNYDTCGG [RPC11]", "protein stability index": "3.15 ± 0.18"}
{"sequence": "NVEKPSSKPAFNLISNA [YLR335W/NUP2]", "protein stability index": "3.15 ± 0.066"}
{"sequence": "NVLLLDSNGDFNEDQLF [RRP46]", "protein stability index": "3.04 ± 0.054"}
{"sequence": "NVMLEKIKDNKEKIKNN [RPT5]", "protein stability index": "2.94 ± 0.087"}
{"sequence": "NVNSRNQLVEPNRIKLS [SRB5]", "protein stability index": "2.43 ± 0.052"}
{"sequence": "NVPWPQNSYADKVTSQA [RPP1]", "protein stability index": "2.19 ± 0.15"}
{"sequence": "NVSNTFNKTTNIDINNE [YJL041W/NSP1]", "protein stability index": "3.28 ± 0.065"}
{"sequence": "NVTSFMPFWKFFMKNFP [SRB8]", "protein stability index": "1.63 ± 0.046"}
{"sequence": "NVVEVMDMNEIEDKENS [RPT5]", "protein stability index": "2.58 ± 0.066"}
{"sequence": "NWRGREHWKVRNFKKAN [BRN1]", "protein stability index": "3.36 ± 0.12"}
{"sequence": "NWSKEDLQKLLKGIQEF [SWI3]", "protein stability index": "3.07 ± 0.057"}
{"sequence": "NYASVYPVVEVERGRVG [RRP43]", "protein stability index": "3.57 ± 0.11"}
{"sequence": "NYEDVGRFLRVPKEGLF [BRR2]", "protein stability index": "3.5 ± 0.11"}
{"sequence": "NYEIVFDTVSNKLFTEP [YMR129W/POM152]", "protein stability index": "3.02 ± 0.06"}
{"sequence": "NYIINDIKKNNKIKLNI [SRB8]", "protein stability index": "3.1 ± 0.16"}
{"sequence": "NYNSTSRSTEKKNDMNT [SIR4]", "protein stability index": "2.48 ± 0.058"}
{"sequence": "NYTKDNEYYPMCEQALS [YCS4]", "protein stability index": "2.61 ± 0.087"}
{"sequence": "NYVAVGDVSNLPYLDEL [QCR2]", "protein stability index": "3.19 ± 0.096"}
{"sequence": "NYYSNKSNSTGNISSST [REC8]", "protein stability index": "3.02 ± 0.099"}
{"sequence": "NYYYLFDKKSFFNGKAL [PRP8]", "protein stability index": "2.16 ± 0.043"}
{"sequence": "PAFSFGISNGSESKDSD [YLR335W/NUP2]", "protein stability index": "3.05 ± 0.11"}
{"sequence": "PAFSFNSSVGNKTDAQA [YJL041W/NSP1]", "protein stability index": "3.47 ± 0.11"}
{"sequence": "PAFSNSNGFNNVTFGSK [YMR153W/NUP53]", "protein stability index": "2.96 ± 0.067"}
{"sequence": "PAFTFGAQKDNEKKTEE [YJL041W/NSP1]", "protein stability index": "2.64 ± 0.28"}
{"sequence": "PAGTSLFGNNAGNTTTG [YGL172W/NUP49]", "protein stability index": "3.24 ± 0.088"}
{"sequence": "PAPINSLSRDFVMKTRR [SNU114]", "protein stability index": "2.95 ± 0.064"}
{"sequence": "PCLSRSCTKCPQIVVPD [DIS3]", "protein stability index": "2.56 ± 0.031"}
{"sequence": "PDFKPWEHTAAEDQILA [SRB8]", "protein stability index": "2.95 ± 0.12"}
{"sequence": "PDGSFEDWSVEELIVDL [RPO26]", "protein stability index": "2.06 ± 0.16"}
{"sequence": "PDGVVVHRDDPALVGKL [SNF6]", "protein stability index": "3.49 ± 0.071"}
{"sequence": "PEDAQLLLAANTHLGAR [RPS0A]", "protein stability index": "1.39 ± 0.052"}
{"sequence": "PEELARILQQLKLDKII [RGR1]", "protein stability index": "1.49 ± 0.05"}
{"sequence": "PEGLLKSLWDYVKKNTE [TAF14]", "protein stability index": "2.12 ± 0.076"}
{"sequence": "PEILRFKVYEPLLLVGL [RPS16A]", "protein stability index": "2.31 ± 0.098"}
{"sequence": "PESIDTILSSKLSNIWM [SRB2]", "protein stability index": "2.78 ± 0.095"}
{"sequence": "PETGDHVVGRIAEVGNK [RRP4]", "protein stability index": "3.44 ± 0.065"}
{"sequence": "PEYAKVGDFLLQYANNA [SIN4]", "protein stability index": "2.55 ± 0.069"}
{"sequence": "PFKFGKTSEKSENHTES [YOR098C/NUP1]", "protein stability index": "3.05 ± 0.14"}
{"sequence": "PFSFSSATSTTEQTKSK [YLR335W/NUP2]", "protein stability index": "2.99 ± 0.058"}
{"sequence": "PGHEMEDFLDKSYYLNT [AAR2]", "protein stability index": "3.1 ± 0.076"}
{"sequence": "PGMPNMPGMPNMPGMPK [SRP54]", "protein stability index": "3.22 ± 0.095"}
{"sequence": "PGPLPDTDSKPSSQSQN [YLR018C/POM34]", "protein stability index": "3.15 ± 0.061"}
{"sequence": "PGQKMSLFSHRKHTRGD [BRN1]", "protein stability index": "2.95 ± 0.21"}
{"sequence": "PHSLATKTTGKCGSVTV [RPS2]", "protein stability index": "1.27 ± 0.1"}
{"sequence": "PIDDTMTLLTDSLRKLY [MTW1]", "protein stability index": "2.52 ± 0.062"}
{"sequence": "PIKNRKNDTHYLLPDDF [BRN1]", "protein stability index": "2.93 ± 0.094"}
{"sequence": "PIMFQDFDDSTAQEINF [IRR1]", "protein stability index": "2.92 ± 0.059"}
{"sequence": "PISAVLRGCKFLQSVDI [GRR1]", "protein stability index": "2.08 ± 0.053"}
{"sequence": "PISEKGLTLSTTNLDID [RPP1]", "protein stability index": "2.92 ± 0.041"}
{"sequence": "PITGASLDLIKERRSLK [RPL24A]", "protein stability index": "3.07 ± 0.078"}
{"sequence": "PITSETAMKKVEDGNIL [RPL25]", "protein stability index": "3.18 ± 0.095"}
{"sequence": "PKARQELPTQLALEIIV [RRP46]", "protein stability index": "1.76 ± 0.045"}
{"sequence": "PKASSAKFFLNVSDEQL [ITC1]", "protein stability index": "3.18 ± 0.055"}
{"sequence": "PKDPSNVETYEQILQWV [BRR2]", "protein stability index": "2.48 ± 0.098"}
{"sequence": "PKMKDEEYDDDDDNSNV [SNF2]", "protein stability index": "3.37 ± 0.16"}
{"sequence": "PKNIEPPLTSQYSTRHD [SWI3]", "protein stability index": "3.02 ± 0.059"}
{"sequence": "PKNQQYRAFGSIWQVKD [MED7]", "protein stability index": "2.7 ± 0.082"}
{"sequence": "PKNSKTPQSKGFVRNSF [RPO31]", "protein stability index": "3.03 ± 0.14"}
{"sequence": "PKNYSLHGLRSFYDAIF [YJL039C/NUP192]", "protein stability index": "2.61 ± 0.041"}
{"sequence": "PKSTKGKILTIKQQQQQ [YML103C/NUP188]", "protein stability index": "2.59 ± 0.046"}
{"sequence": "PKYIDELKTRDATNTSY [SWP82]", "protein stability index": "3.12 ± 0.072"}
{"sequence": "PLLARKQFVVDVLHPNR [RPS24A]", "protein stability index": "1.83 ± 0.072"}
{"sequence": "PLLESFITFSLDDWISI [IRR1]", "protein stability index": "2.46 ± 0.063"}
{"sequence": "PLLPIVEELMKKRRGSR [SNU114]", "protein stability index": "2.79 ± 0.12"}
{"sequence": "PLLSLDVTPISMFGSDQ [RPN4]", "protein stability index": "2.79 ± 0.18"}
{"sequence": "PLLYNSLCTVWKPNPSY [SRB5]", "protein stability index": "1.68 ± 0.062"}
{"sequence": "PLPPRIDPSVTMMTVEE [RPT1]", "protein stability index": "1.9 ± 0.076"}
{"sequence": "PLPTPFKVDDNVDFPSA [RPN2]", "protein stability index": "2.75 ± 0.043"}
{"sequence": "PLSQDELISLRKILESS [YIL149C/MLP2]", "protein stability index": "2.67 ± 0.067"}
{"sequence": "PMVSVMKMDKSPTESYS [RPT2]", "protein stability index": "1.57 ± 0.088"}
{"sequence": "PNEFEIQLSTVNRQSPL [RGR1]", "protein stability index": "2.65 ± 0.057"}
{"sequence": "PNELSQILTVDPKTSLR [RPC82]", "protein stability index": "1.91 ± 0.059"}
{"sequence": "PNPNNMKTVQSPMGAQP [GAL11]", "protein stability index": "2.96 ± 0.095"}
{"sequence": "PNRIKLSKEVPFSYLID [SRB5]", "protein stability index": "2.15 ± 0.058"}
{"sequence": "PNSSANNNPLQQQSSQN [GAL11]", "protein stability index": "3.03 ± 0.045"}
{"sequence": "PPAYALLGSCQTDGMGL [RPC25]", "protein stability index": "2.57 ± 0.15"}
{"sequence": "PPPAPHNLHPQIGQVPL [SNF5]", "protein stability index": "2.94 ± 0.053"}
{"sequence": "PQDILSKLYLLLARVFE [SNF11]", "protein stability index": "2.37 ± 0.052"}
{"sequence": "PQENDLESKMSEVGDAF [SMC3]", "protein stability index": "3.36 ± 0.2"}
{"sequence": "PQIRQEIEQLDQYIQKQ [YGL172W/NUP49]", "protein stability index": "2.76 ± 0.046"}
{"sequence": "PQKNVKIQVVDRHIGCV [PRE10]", "protein stability index": "2.72 ± 0.27"}
{"sequence": "PQKYVLHPQLHEVQYQE [SIN4]", "protein stability index": "1.88 ± 0.082"}
{"sequence": "PQQNKTPFSFGTANNNS [YJL041W/NSP1]", "protein stability index": "3.2 ± 0.038"}
{"sequence": "PQSAPNQMGMGTNNGMS [YOR098C/NUP1]", "protein stability index": "3.14 ± 0.13"}
{"sequence": "PRDLLRVIIQELRFPSP [PRP28]", "protein stability index": "1.94 ± 0.055"}
{"sequence": "PRGVLLYGPPGTGKTML [RPT3]", "protein stability index": "2.57 ± 0.11"}
{"sequence": "PRQLHNTHWGLVCPAET [RPB2]", "protein stability index": "1.7 ± 0.07"}
